Laboratory results as given in publication PMC12014896 (2025).

B1: COVIC-23 (antibody, V domains shown)
VH: EVQLLESGGGLVQPGGSLRLSCAASGFTFSNYPMNWVRQAPGKGLEWVSTISGSGGNTFYADSVKGRFTISRDNSKNTLYLQMNSLRAEDTAVYYCVRHDEYSFDYWGQGTLVTVSS
B2: COVIC-35 (antibody, V domains shown)
VH: EVQLVESGGGVVQPGRSLRLSCAASGFTFSSYAMHWVRQAPGKGLEWVAVISYDGSYKYYADSVKGRFTISRDNSKNTLYLQMNSLTAEDTAVYYCAREGSRQWLVIYFDYWGQGTLVTVSS
VL: AIRMTQSPSSLSASVGDRVTITCRASQSISSYLNWYQQKPGKAPKLLIYAASSLQSGVPSRFSGSGSGTDFTLTISSLQPEDFATYYCQQSYTTFIYTFGQGTKLEIK
B3: COVIC-126 (antibody)
chain 1: QVQLQESGGGLVQAGGSLRLSCAASGRTFSEYAMGWFRQAPGKEREFVATISWSGGSTYYTDSVKGRFTISRDNAKNTVYLQMNSLKPDDTAVYYCAAAGLGTVVSEWDYDYDYWGQGTQVTVSSGGSGGSQVQLQESGGGLVQAGGSLRLSCAASGRTFSEYAMGWFRQAPGKEREFVATISWSGGSTYYTDSVKGRFTISRDNAKNTVYLQMNSLKPDDTAVYYCAAAGLGTVVSEWDYDYDYWGQGTQVTVSSGGGGSGGGGSASTKGPSVFPLAPSSKSTSGGTAALGCLVKDYFPEPVTVSWNSGALTSGVHTFPAVLQSSGLYSLSSVVTVPSSSLGTQTYICNVNHKPSNTKVDKKVEPKSCDKTHTKKKPLDGEYFTLQIRGRERFEMFRELNEALELKDAQAGKEPGGGGGSGGGGSQVQLQESGGGLVQAGGSLRLSCAASGRTFSEYAMGWFRQAPGKEREFVATISWSGGSTYYTDSVKGRFTISRDNAKNTVYLQMNSLKPDDTAVYYCAAAGLGTVVSEWDYDYDYWGQGTQVTVSSGGSGGSQVQLQESGGGLVQAGGSLRLSCAASGRTFSEYAMGWFRQAPGKEREFVATISWSGGSTYYTDSVKGRFTISRDNAKNTVYLQMNSLKPDDTAVYYCAAAGLGTVVSEWDYDYDYWGQGTQVTVSS
chain 2: QVQLQESGGGLVQAGGSLRLSCAASGRTFSEYAMGWFRQAPGKEREFVATISWSGGSTYYTDSVKGRFTISRDNAKNTVYLQMNSLKPDDTAVYYCAAAGLGTVVSEWDYDYDYWGQGTQVTVSSGGSGGSQVQLQESGGGLVQAGGSLRLSCAASGRTFSEYAMGWFRQAPGKEREFVATISWSGGSTYYTDSVKGRFTISRDNAKNTVYLQMNSLKPDDTAVYYCAAAGLGTVVSEWDYDYDYWGQGTQVTVSSGGGGSGGGGSKRTVAAPSVFIFPPSDEQLKSGTASVVCLLNNFYPREAKVQWKVDNALQSGNSQESVTEQDSKDSTYSLSSTLTLSKADYEKHKVYACEVTHQGLSSPVTKSFNRGEC
B4: COVIC-119 (antibody)
chain 1: QVQLQESGGGLVQAGGSLRLSCAASGRTFSEYAMGWFRQAPGKEREFVATISWSGGSTYYTDSVKGRFTISRDNAKNTVYLQMNSLKPDDTAVYYCAAAGLGTVVSEWDYDYDYWGQGTQVTVSSGGSGGSQVQLQESGGGLVQAGGSLRLSCAASGRTFSEYAMGWFRQAPGKEREFVATISWSGGSTYYTDSVKGRFTISRDNAKNTVYLQMNSLKPDDTAVYYCAAAGLGTVVSEWDYDYDYWGQGTQVTVSSGGGGSGGGGSASTKGPSVFPLAPSSKSTSGGTAALGCLVKDYFPEPVTVSWNSGALTSGVHTFPAVLQSSGLYSLSSVVTVPSSSLGTQTYICNVNHKPSNTKVDKKVEPKSCDKTHTKKKPLDGEYFTLQIRGRERFEMFRELNEALELKDAQAGKEPG
chain 2: QVQLQESGGGLVQAGGSLRLSCAASGRTFSEYAMGWFRQAPGKEREFVATISWSGGSTYYTDSVKGRFTISRDNAKNTVYLQMNSLKPDDTAVYYCAAAGLGTVVSEWDYDYDYWGQGTQVTVSSGGSGGSQVQLQESGGGLVQAGGSLRLSCAASGRTFSEYAMGWFRQAPGKEREFVATISWSGGSTYYTDSVKGRFTISRDNAKNTVYLQMNSLKPDDTAVYYCAAAGLGTVVSEWDYDYDYWGQGTQVTVSSGGGGSGGGGSKRTVAAPSVFIFPPSDEQLKSGTASVVCLLNNFYPREAKVQWKVDNALQSGNSQESVTEQDSKDSTYSLSSTLTLSKADYEKHKVYACEVTHQGLSSPVTKSFNRGEC
B5: COVIC-78 (antibody, V domains shown)
VH: QVQLVQSGAEVKKPGSSVKVSCKASGGTFSTSTFNWVRQAPGQGLEWMGGIIPIFGTVNYAQKFQGRVTITADESTGTAYMELSSLRSEDTAVYYCATLGQWDLLPRWGQGTLVTVSS
VL: KIVLTQSPDTLSLSPGERATLSCRASQSVDSNYLAWYQQKPGQAPRLLIYGASSRATGIPDRFSGSGSGTDFTLTISRLEPEDFAVYYCQQYGSSYTFGQGTKLEIK
B6: COVIC-266 (antibody, V domains shown)
VH: EVQLVESGGGLVQPGGSLRLSCKASGISVAPHAVTWVRQAPGKGLEWIGVIASNADTYYASWAKGRFTISRDNSKNTLYLQMNSLRAEDTAVYYCARHPGSAGYGYTYYYAMDPWGQGTLVTVSS
VL: DIQMTQSPSSLSASVGDRVTITCKASEDIRYGLNWYQQKPGKAPKLLIYGANTLEAGVPSRFSGSGSGTDFTLTISSLQPEDFATYYCQQGYSTPLTFGGGTKVEIK
B7: COVIC-386 (antibody, V domains shown)
VH: EVQLVESGGGLVQPGGSLRLSCKASGYSFRHQAMTWVRQAPGKGLEWIGVIASNADTYYASWAKGRFTISRDNSKNTLYLQMNSLRAEDTAVYYCARHPGSAGYGYTYYYAMDPWGQGTLVTVSS
VL: DIQMTQSPSSLSASVGDRVTITCQASERVFYGIDWYQQKPGKAPKLLIYGASALWHGVPSRFSGSGSGTDYTLTISSLQPEDFATYYCQQGYMVPIGFGGGTKVEIK
B8: COVIC-362 (antibody, V domains shown)
VH: EVQLVESGGGLVQPGGSLRLSCKASGISVAPHAVTWVRQAPGKGLEWIGVIASNADTYYASWAKGRFTISRDNSKNTLYLQMNSLRAEDTAVYYCARHPGSAGYGYTYYYAMDPWGQGTLVTVSS
VL: DIQMTQSPSSLSASVGDRVTITCQASERVFYGIDWYQQKPGKAPKLLIYGASALWHGVPSRFSGSGSGTDYTLTISSLQPEDFATYYCQQGYMVPIGFGGGTKVEIK
B9: COVIC-332 (antibody, V domains shown)
VH: QVQLVQSGAEVKKPGSSLKVSCKASGGTFNNFAISWVRQAPGQGPEWMGRINPILSAAKYAQKFQGRLTITADKSTTTAYMELSSLRSEDTAVYYCAPTGTGESWWFDPWGQGTLVTVSS
VL: QSVLTQPPSASGTPGQRVTISCSGSSSNIGTNYVYWYQQLPGTAPKVLIYGNNQRPSGVPDRFSGSKSGSSASLAISGLRSEDEADYYCAAWDDSLSGPVFGGGTKLTVL
B10: COVIC-152 (antibody, V domains shown)
VH: QVQLQESGPGLVKPSQTLSLTCTVSGGSISSYGYYWSWIRQHPGKGLEWIGYIYYSGSTYYNPSLKSRVTMSVDTSKNQLSLRLNSVSAADTAVYYCARDFGGNSNYFDYWGQGTLVTVSS
VL: AIQLTQSPSSLSASVGDRVTITCRASQGISSALAWYQQKPGKAPNLLIYDASSLESGVPSRFSGSGSGTDFTLTISSLQPEDFATYYCQQFNSSPLTFGGGTKVEIKR
B11: COVIC-307 (antibody, V domains shown)
VH: QVQLVQSGAEVKKPGSSVKVSCKASGGTFGISWVRQAPGQGLEWMGRIIPILGTANHAQKFQGRVTITADKSTGTVYMELSSLRSEDTAVYYCARDGDSGSYYETLGFDYWGQGTLVTVSS
VL: QSALTQPPSASGSPGQSVTISCTGTSSDVGGYNYVSWYQQHPGKAPKLMIYEVNKRPSGVPDRFSGSKSGNTASLTVSGLQAEDEADYYCSSYAGSNNLVFGGGTKLTVL
B12: COVIC-321 (antibody)
chain 1: not shown
chain 2: EVQLLESGGGLVQPGGSLRLSCAASGRTFSEYAMGWFRQAPGKGLEFVSTISWSGGSTYYADSVKGRFTISRDNSKNTLYLQMNSLRAEDTAVYYCAAAGLGTVVSEWDYDYDYWGQGTLVTVSSGGGGSGGGGSKRTVAAPSVFIFPPSDEQLKSGTASVVCLLNNFYPREAKVQWKVDNALQSGNSQESVTEQDSKDSTYSLSSTLTLSKADYEKHKVYACEVTHQGLSSPVTKSFNRGEC
B13: COVIC-61 (antibody)
chain: QVQLQESGGGLVQAGGSLRLSCAASGRTFSEYAMGWFRQAPGKEREFVATISWSGGSTYYTDSVKGRFTISRDNAKNTVYLQMNSLKPDDTAVYYCAAAGLGTVVSEWDYDYDYWGQGTQVTVSSGGSGGSQVQLQESGGGLVQAGGSLRLSCAASGRTFSEYAMGWFRQAPGKEREFVATISWSGGSTYYTDSVKGRFTISRDNAKNTVYLQMNSLKPDDTAVYYCAAAGLGTVVSEWDYDYDYWGQGTQVTVSSGGGGSGGGGSKKKPLDGEYFTLQIRGRERFEMFRELNEALELKDAQAGKEPG
B14: COVIC-337 (antibody, V domains shown)
VH: EVQLVQSGAEVKKPGSSVKVSCKASGGTFSMHTIRWVRQAPGQGLEWMGRIIPMLGIVNYAQKFQGRVTISADKSTSTAYMELSSLTSEDTAMYYCAKGSHDVFDIWGQGTMVTVSS
VL: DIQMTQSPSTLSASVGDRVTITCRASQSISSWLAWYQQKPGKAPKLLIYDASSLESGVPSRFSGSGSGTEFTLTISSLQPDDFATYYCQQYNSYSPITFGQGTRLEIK
B15: COVIC-123 (antibody)
chain: QVQLQESGGGLVQAGGSLRLSCAASGRTFSEYAMGWFRQAPGKEREFVATISWSGGSTYYTDSVKGRFTISRDNAKNTVYLQMNSLKPDDTAVYYCAAAGLGTVVSEWDYDYDYWGQGTQVTVSSGGSGGSQVQLQESGGGLVQAGGSLRLSCAASGRTFSEYAMGWFRQAPGKEREFVATISWSGGSTYYTDSVKGRFTISRDNAKNTVYLQMNSLKPDDTAVYYCAAAGLGTVVSEWDYDYDYWGQGTQVTVSSGGGGSGGGGSEPKSCDKTHTCPPCPAPELLGGKKKPLDGEYFTLQIRGRERFEMFRELNEALELKDAQAGKEPGGGGGSGGGGSQVQLQESGGGLVQAGGSLRLSCAASGRTFSEYAMGWFRQAPGKEREFVATISWSGGSTYYTDSVKGRFTISRDNAKNTVYLQMNSLKPDDTAVYYCAAAGLGTVVSEWDYDYDYWGQGTQVTVSS
B16: COVIC-299 (antibody, V domains shown)
VH: EVQLVESGGGLVQPGGSLRLSCAASGLIVSRNYMSWVRQAPGKGLEWVSVIYSGGSTFYADSVKGRFTISRDNSKNTLYLQMNSLRAEDTAVYYCARDLNIAGGFDIWGQGTMVTVSS
VL: DIQLTQSPSFLSASVGDRVTITCRASQGISSYLAWYQQKPGKAPKLLIYAASTLQSGVPSRFSGSGSGTDFTLTISSLQPEDFATYYCQHLNIDPITFGQGTRLEIK
B17: COVIC-42 (antibody, V domains shown)
VH: EVQLVESGGGLIQPGGSLRLSCAASGVIVSSNYMSWVRQAPGKGLEWVSVIYSGGSTYYADSVKGRFTISRDNSKNTLYLQMNSLRAEDTAVYYCARDLDVSGGMDVWGQGTTVTVSS
VL: not shown
B18: COVIC-21 (antibody, V domains shown)
VH: EVQLLESGGGLVQPGGSLRLSCAASGFTFSDFAMAWVRQAPGKGLEWVSAISGSGDITYYADSVKGRFTISRDNSKNTLYLQMNSLRAEDTAVYYCAREADGLHSPWHFDLWGQGTLVTVSS

Biological target: SARS-CoV-2 spike RBD (Wuhan-Hu-1) (Severe acute respiratory syndrome …, UniProt P0DTC2)
Assay: SPR

Binder | Kd
B1 | 71.3 nM
B2 | 2.81 nM
B3 | 139 nM
B4 | 179 nM
B5 | 393 nM
B6 | 2.41 nM
B7 | 0.177 nM
B8 | 0.00985 nM
B9 | 0.111 nM
B10 | 3.02 nM
B11 | 2.36 nM
B12 | 30 nM
B13 | 195 nM
B14 | 3.02 nM
B15 | 206 nM
B16 | 0.332 nM
B17 | 11 nM
B18 | 0.208 nM
